Protein stability index data for 94 variants are collected here from the supplement of paper PMC10567573.

B1: POLD4 (parent)
chain: ITDSYPVVKRREGPAGHSKGELAP
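Further: lentivirally expressed fusions sorted by FACS into six bins by GFP to DsRed ratio, PSI derived from sequencing read proportions per bin multiplied by bin number.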

In this data set the parent is B1. The experiment in a line: protein stability index of a GFP-peptide fusion (GPS, HEK-293T) (PSI 1-6); higher = more stable. As to conditions: c terminus: a fixed tail appended.
Turning to ITDSYPWVKRREGPAGHSKGELAP, the protein stability index is 4.17.

With ITDSYPGVKRREGPAGHSKGELAP, the protein stability index turned out to be 4.93.

On to ITDSYPFVKRREGPAGHSKGELAP, for which the protein stability index is 3.45.

As to ITDSYPDVKRREGPAGHSKGELAP, the protein stability index came out at 4.8.

As to ITDSYPHVKRREGPAGHSKGELAP, the protein stability index came out at 4.4.

With ITDSYPKVKRREGPAGHSKGELAP, the protein stability index was 3.56.

Regarding ITDSYPPVKRREGPAGHSKGELAP, the protein stability index came out at 5.22.

For the variant ITDSYPNVKRREGPAGHSKGELAP, the protein stability index worked out at 4.2.

Turning to ITDSYPAVKRREGPAGHSKGELAP, the protein stability index came out at 4.02.

Regarding ITDSYPTVKRREGPAGHSKGELAP, the protein stability index came out at 4.18.

For ITDSYPQVKRREGPAGHSKGELAP, the protein stability index was 3.79.

With ITDSYPCVKRREGPAGHSKGELAP, the protein stability index stood at 3.63.

In the case of ITDSYPLVKRREGPAGHSKGELAP, the protein stability index stood at 3.44.

Regarding ITDSYPYVKRREGPAGHSKGELAP, the protein stability index was 4.14.

With ITDSYPEVKRREGPAGHSKGELAP, the protein stability index worked out at 5.27.

On to ITDSYPIVKRREGPAGHSKGELAP, for which the protein stability index was 3.42.

In the case of ITDSYPSVKRREGPAGHSKGELAP, the protein stability index turned out to be 4.76.

In the case of ITDSKPVVKRREGPAGHSKGELAP, the protein stability index came out at 5.3.

As to ITDSPPVVKRREGPAGHSKGELAP, the protein stability index came out at 5.13.

On to ITDSDPVVKRREGPAGHSKGELAP, for which the protein stability index came out at 5.56.

As to ITDSIPVVKRREGPAGHSKGELAP, the protein stability index was 4.84.

For the variant ITDSHPVVKRREGPAGHSKGELAP, the protein stability index was 5.39.

In the case of ITDSRPVVKRREGPAGHSKGELAP, the protein stability index was 4.72.

With ITDSEPVVKRREGPAGHSKGELAP, the protein stability index amounted to 5.69.

In the case of ITDSMPVVKRREGPAGHSKGELAP, the protein stability index worked out at 3.5.

For the variant ITDSCPVVKRREGPAGHSKGELAP, the protein stability index is 3.78.

Turning to ITDSQPVVKRREGPAGHSKGELAP, the protein stability index came to 5.68.

ITDSNPVVKRREGPAGHSKGELAP: the protein stability index is 4.98.

On to ITDSLPVVKRREGPAGHSKGELAP, for which the protein stability index is 4.59.

ITDSTPVVKRREGPAGHSKGELAP: the protein stability index was determined as 3.5.

With ITDSWPVVKRREGPAGHSKGELAP, the protein stability index was 3.08.

Turning to ITDSSPVVKRREGPAGHSKGELAP, the protein stability index amounted to 4.91.

On to ITDSVPVVKRREGPAGHSKGELAP, for which the protein stability index amounted to 4.23.

Consider ITDSYPVCKRREGPAGHSKGELAP, for which the protein stability index was determined as 3.79.

Take ITDSYPVMKRREGPAGHSKGELAP: the protein stability index came to 3.98.

In the case of ITDSYPVQKRREGPAGHSKGELAP, the protein stability index stood at 3.1.

Turning to ITDSYPVRKRREGPAGHSKGELAP, the protein stability index worked out at 2.88.

In the case of ITDSYPVSKRREGPAGHSKGELAP, the protein stability index came to 4.84.

ITDSYPVFKRREGPAGHSKGELAP: the protein stability index amounted to 4.32.

As to ITDSYPVEKRREGPAGHSKGELAP, the protein stability index came out at 5.31.

With ITDSYPVHKRREGPAGHSKGELAP, the protein stability index is 4.07.

In the case of ITDSYPVKKRREGPAGHSKGELAP, the protein stability index was 3.2.

ITDSYPVDKRREGPAGHSKGELAP: the protein stability index is 5.21.

In the case of ITDSYPVYKRREGPAGHSKGELAP, the protein stability index stood at 4.34.

Take ITDSYPVNKRREGPAGHSKGELAP: the protein stability index was determined as 4.21.

Regarding ITDSYPVWKRREGPAGHSKGELAP, the protein stability index came to 3.16.

ITDSYPVTKRREGPAGHSKGELAP: the protein stability index is 4.42.

Consider ITDSYPVPKRREGPAGHSKGELAP, for which the protein stability index worked out at 4.35.

As for ITDSYPVIKRREGPAGHSKGELAP, the protein stability index is 3.26.

ITDSYPVVHRREGPAGHSKGELAP: the protein stability index was 2.72.

With ITDSYPVVMRREGPAGHSKGELAP, the protein stability index came to 4.06.

On to ITDSYPVVWRREGPAGHSKGELAP, for which the protein stability index was determined as 4.14.

For the variant ITDSYPVVERREGPAGHSKGELAP, the protein stability index was 4.83.

As to ITDSYPVVRRREGPAGHSKGELAP, the protein stability index is 3.25.

Consider ITDSYPVVGRREGPAGHSKGELAP, for which the protein stability index was 5.01.

For the variant ITDSYPVVCRREGPAGHSKGELAP, the protein stability index is 3.95.

Take ITDSYPVVVRREGPAGHSKGELAP: the protein stability index was 4.06.

In the case of ITDSYPVVARREGPAGHSKGELAP, the protein stability index was 4.65.

For ITDSYPVVIRREGPAGHSKGELAP, the protein stability index amounted to 3.8.

ITDSYPVVFRREGPAGHSKGELAP: the protein stability index came out at 3.1.

Regarding ITDSYPVVSRREGPAGHSKGELAP, the protein stability index was 4.41.

In the case of ITDSYPVVDRREGPAGHSKGELAP, the protein stability index was 4.63.

For the variant ITDSYPVVYRREGPAGHSKGELAP, the protein stability index came to 4.15.

Take ITDSYPVVTRREGPAGHSKGELAP: the protein stability index amounted to 4.71.

Turning to ITDSYPVVPRREGPAGHSKGELAP, the protein stability index came to 4.26.

ITDSYHVVKRREGPAGHSKGELAP: the protein stability index is 5.

ITDSYWVVKRREGPAGHSKGELAP: the protein stability index is 3.4.

As to ITDSYAVVKRREGPAGHSKGELAP, the protein stability index turned out to be 3.48.

For the variant ITDSYSVVKRREGPAGHSKGELAP, the protein stability index worked out at 3.53.

ITDSYLVVKRREGPAGHSKGELAP: the protein stability index stood at 3.75.

Consider ITDSYDVVKRREGPAGHSKGELAP, for which the protein stability index amounted to 5.12.

Regarding ITDSYRVVKRREGPAGHSKGELAP, the protein stability index amounted to 2.94.

ITDSYEVVKRREGPAGHSKGELAP: the protein stability index worked out at 4.33.

In the case of ITDSYFVVKRREGPAGHSKGELAP, the protein stability index was 3.52.

As for ITDSYIVVKRREGPAGHSKGELAP, the protein stability index amounted to 4.17.

On to ITDSYTVVKRREGPAGHSKGELAP, for which the protein stability index was found to be 4.55.

On to ITDSYGVVKRREGPAGHSKGELAP, for which the protein stability index was determined as 4.67.

For ITDSYNVVKRREGPAGHSKGELAP, the protein stability index amounted to 4.51.

On to ITDSYPVVKRLEGPAGHSKGELAP, for which the protein stability index stood at 2.98.

As for ITDSYPVVKRDEGPAGHSKGELAP, the protein stability index amounted to 4.79.

On to ITDSYPVVKRTEGPAGHSKGELAP, for which the protein stability index was 3.33.

ITDSYPVVKRCEGPAGHSKGELAP: the protein stability index is 3.68.

Regarding ITDSYPVVKRYEGPAGHSKGELAP, the protein stability index is 3.36.

In the case of ITDSYPVVKRWEGPAGHSKGELAP, the protein stability index stood at 3.46.

Consider ITDSYPVVKRNEGPAGHSKGELAP, for which the protein stability index is 3.28.

Take ITDSYPVVKRSEGPAGHSKGELAP: the protein stability index was 3.23.

Turning to ITDSYPVVKRAEGPAGHSKGELAP, the protein stability index turned out to be 3.23.

Regarding ITDSYPVVKRGEGPAGHSKGELAP, the protein stability index came to 3.79.

On to ITDSYPVVKRVEGPAGHSKGELAP, for which the protein stability index came to 2.69.

For the variant ITDSYPVVKRFEGPAGHSKGELAP, the protein stability index was 2.43.

In the case of ITDSYPVVKRMEGPAGHSKGELAP, the protein stability index came to 2.87.

Regarding ITDSYPVVKRKEGPAGHSKGELAP, the protein stability index was 3.54.

As for ITDSYPVVKRHEGPAGHSKGELAP, the protein stability index came to 3.28.

As for ITDSYPVVKRPEGPAGHSKGELAP, the protein stability index is 3.28.
